We go through 20 variants from the RNAGym collection of RNA variant scans (doi:10.7554/elife.90254).

To fix the notation:
B1: LINE1-full (parent)
chain: UACGUAGGUGGUUUUCCCCUGAUAGUGCUAAGGGGGCCUGGAAGUUUGGACUGGGCAGAGCUCAACACAGCGUGGCAAAGUGGCUGUGGCUAGACUGCCUCUCUGGAUUCCUCGUCACUCAGCAGGGCAUCUCUGAGAGAAAUGCC

The variants in the data set derive from B1. As to the kind of experiment: self-cleavage, relative activity (ratio to wild type); higher = more cleavage; in vitro, sequencing; the parent is a self-cleaving ribozyme.
Consider UACGUAGGUGGUUUUCCCCUGGUAGUGCUAAGGGGGCCUGGUAGUUUGGACUGGGCAGAGCUCAACACAGCGUGGCAAAGUGGCUGUGGCUAGACUGCCUCUCUGGAUUCCUCGUCACUCAGCAGGGCAUCUCUGAGAGAAAUGCC [A22G A42U], for which the self-cleavage was determined as 1.31. In the case of UACGUAGGUGGUUUUCCCCUGGUAGUGCUAAGGGGGCCUGGGAGUUUGGACUGGGCAGAGCUCAACACAGCGUGGCAAAGUGGCUGUGGCUAGACUGCCUCUCUGGAUUCCUCGUCACUCAGCAGGGCAUCUCUGAGAGAAAUGCC [A22G A42G] it was 0.93; in that of UACGUAGGUGGUUUUCCCCUGCUAGUGCUAAGGGGGCCUGGAAGUUUGGACUGGGCAGAGCUCAACACAGCGUGGCAAAGUGGCUGUGGCUAGACUGCCUCUCUGGAUUCCUCGUCACUCAGCAGGGCAUCUCUGAGAGAAGUGCC [A22C A142G], 1.27. In the case of UACGUAGGUGGUUUUCCCCUGGUAGUGCUAUGGGGGCCUGGAAGUUUGGACUGGGCAGAGCUCAACACAGCGUGGCAAAGUGGCUGUGGCUAGACUGCCUCUCUGGAUUCCUCGUCACUCAGCAGGGCAUCUCUGAGAGAAAUGCC [A22G A31U] it was 0.86; in that of UACGUAGGUGGUUUUCCCCUGGUAGUGCUAGGGGGGCCUGGAAGUUUGGACUGGGCAGAGCUCAACACAGCGUGGCAAAGUGGCUGUGGCUAGACUGCCUCUCUGGAUUCCUCGUCACUCAGCAGGGCAUCUCUGAGAGAAAUGCC [A22G A31G], 0.35; in that of UACGUAGGUGGUUUUCCCCUGCUAGUGCUAAGGGGGCCUGGAAGUUUGGACUGGGCAGAGCUCAACACAGCGUGGCAAAGUGGCUGUGGCUAGACUGCCUCUCUGGAUUCCUCGUCACUCAGCAGGGCAUCUCUGAGAGAAAAGCC [A22C U143A], 1.53. The result for UACGUAGGUGGUUUUCCCCUGCUAGUGCUAAGGGGGCCUGGAAGUUUGGACUGGGCAGAGCUCAACACAGCGUGGCAAAGUGGCUGUGGCUAGACUGCCUCUCUGGAUUCCUCGUCACUCAGCAGGGCAUCUCUGAGAGGAAUGCC [A22C A140G] reads 1.65; that for UACGUAGGUGGUUUUCCCCUGCUAGUGCUAAGGGGGCCUGGAAGUUUGGACUGGGCAGAGCUCAACACAGCGCGGCAAAGUGGCUGUGGCUAGACUGCCUCUCUGGAUUCCUCGUCACUCAGCAGGGCAUCUCUGAGAGAAAUGCC [A22C U73C], 1.88. In the case of UACGUAGGUGGUUUUCCCCUGGUGGUGCUAAGGGGGCCUGGAAGUUUGGACUGGGCAGAGCUCAACACAGCGUGGCAAAGUGGCUGUGGCUAGACUGCCUCUCUGGAUUCCUCGUCACUCAGCAGGGCAUCUCUGAGAGAAAUGCC [A22G A24G], the self-cleavage was determined as 0.98.

UACGUAGGUGGUUUUCCCCUGCUAGUGCUAAGGGGGCCUGGAAGUUUGGACUGGGCAGAGCUCAACACAGCGUGGCAAAGUGGCUGUGGCUAGACUGCCUCUCUGGAUUCCUCGUCACACAGCAGGGCAUCUCUGAGAGAAAUGCC [A22C U119A]: the self-cleavage amounted to 2.09. The result for UACGUAGGUGGUUUUCCCCUGCUAGUGCUAAGGGGGCCUGGAAGUUUGGACUGGGCAGAGCUCAACACAGCGUGGCAAAGUGGCCGUGGCUAGACUGCCUCUCUGGAUUCCUCGUCACUCAGCAGGGCAUCUCUGAGAGAAAUGCC [A22C U85C] reads 0.35. In the case of UACGUAGGUGGUUUUCCCCUGCUAGUGCUAAGGGGGCCUGGAAGUUUGGACUGGGCAGAGCUCAACACAGCGUGGCAAAGUGGCUGUGGCUUGACUGCCUCUCUGGAUUCCUCGUCACUCAGCAGGGCAUCUCUGAGAGAAAUGCC [A22C A92U] it was 1.7.

As for UACGUAGGUGGUUUUCCCCUGCUAGUGCUAAGGGGGCCUGGAAGUUUGGACUGGGCAGAGCUCAACACAGCGUGGCUAAGUGGCUGUGGCUAGACUGCCUCUCUGGAUUCCUCGUCACUCAGCAGGGCAUCUCUGAGAGAAAUGCC [A22C A77U], the self-cleavage came to 0.35. In the case of UACGUAGGUGGUUUUCCCCUGCUAGUGCUAAGGGGGCCUGGAAGUUUGGACUGGGCAGAGCUCAACACAGCGUGGCAAAGUGGCUGUGGCUAGACUGCCUCUCUGGAUUCCUCGUCACUCAGCAGGGCUUCUCUGAGAGAAAUGCC [A22C A129U], the self-cleavage worked out at 1.96.

Turning to UACGUAGGUGGUUUUCCCCUGCUAGUGCUAAGGGGGCCUGGAAGUUUGGGCUGGGCAGAGCUCAACACAGCGUGGCAAAGUGGCUGUGGCUAGACUGCCUCUCUGGAUUCCUCGUCACUCAGCAGGGCAUCUCUGAGAGAAAUGCC [A22C A50G], the self-cleavage was found to be 1.86. Consider UACGUAGGUGGUUUUCCCCUGGUAGUGCUAAGGGGGCCUGGAAGUUUGGUCUGGGCAGAGCUCAACACAGCGUGGCAAAGUGGCUGUGGCUAGACUGCCUCUCUGGAUUCCUCGUCACUCAGCAGGGCAUCUCUGAGAGAAAUGCC [A22G A50U], for which the self-cleavage turned out to be 1.32. The result for UACGUAGGUGGUUUUCCCCUGCUAGUGCUAAGGGGGCCUGGAAGUUUGGACUGGGCAGAGCUCAACACAGCGUGGCAAAGUGGCUGUGGCUAGACUGCCUCUCUGGAUUCCUCGUCACUCAGCAGGGCAUCUCUGAGAGAGAUGCC [A22C A141G] reads 1.34; that for UACGUAGGUGGUUUUCCCCUGGUAGUGCUAAGGGGGCCUGGAGGUUUGGACUGGGCAGAGCUCAACACAGCGUGGCAAAGUGGCUGUGGCUAGACUGCCUCUCUGGAUUCCUCGUCACUCAGCAGGGCAUCUCUGAGAGAAAUGCC [A22G A43G], 1.02. In the case of UACGUAGGUGGUUUUCCCCUGCUAGUGCUAAGGGGGCCUGGAAGUUUGGACUGGGCAGAGCUCAACACAGCGUGGCAAAGUGGCUGUGGCUAGACUGCCUCUCUGGAUUCCUCGUCACUCAGCAGGGCAUCUCUGAGAGAAAUGCC [A22C] it was 1.51; in that of UACGUAGGUGGUUUUCCCCUGGUAGUGCUAAGGGGGCCUGGAAGUUUGGACUGGGCAGAGCUCAACACAGCGUGGCAAAGUGGCUGUGGCUAGACUGCCUCUCUGGAUUCCUCGUCACUCAGCAGGGCAUCUCUGAGAGAAAUGCC [A22G], 1.12.
